Changes are numbered by the printed parent chain. In names and notes the source's numbering stands. Each block holds one binder with its values, some of them ahead of it.
What was measured:
[1] = molecular target: T1, Recombinant human FcγRIIIA variant V [CD16a], Gln17-Gln208 with C-terminal 6-His tag (human, UniProt P08637 17-208); assay: SPR (Biacore X), Mab on CM4 chip, h-FcγRIIIA as analyte, heterogeneous ligand model, minor component
T1 construct: range 17-208; 'variant V' is given without a position, so no substitution is written; also called h-FcγRIIIA

[2] = molecular target: T2, Recombinant mouse FcγRIII [CD16], Ala31-Thr215 with C-terminal 10-His tag (mouse, UniProt P08508 31-215); assay: SPR (Biacore X): m-FcγRIII injected over c515H7 Mab immobilized on a CM4 sensorchip; Langmuir model
T2 construct: Soluble form bought from R&D Systems; also called m-FcγRIII
T2 sequence: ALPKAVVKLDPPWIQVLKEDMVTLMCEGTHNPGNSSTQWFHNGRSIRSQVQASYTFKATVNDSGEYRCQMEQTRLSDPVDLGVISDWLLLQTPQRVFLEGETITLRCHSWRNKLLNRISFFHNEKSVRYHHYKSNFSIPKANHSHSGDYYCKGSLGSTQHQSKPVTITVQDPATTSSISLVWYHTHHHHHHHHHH
Description: (§1) 2017 RU of c515H7 Mab were immobilized using the amine coupling kit chemistry on the second flowcell (FC2) of a CM4 sensorchip. The first flowcell (FC1) activated by NHS and EDC mixture and des-activated by ethanolamine served as the reference surface to check and subtract the non specific interaction between the analyte (Fc gamma receptors) and the sensorchip matrix.
(§2) The kinetic experiments were carried out at 25° Celsius at a flow rate of 30 μl/min. The HBS-EP buffer was used either as the running buffer or for the preparation of analyte solutions. The analyte solutions were injected during 90 seconds (association phase) with a 90 seconds delay (dissociation phase). An injection of running buffer as analyte was used as a double reference. All the sensorgrams were corrected by this double reference sensorgram.
After each injection of the analyte, the sensorchip was regenerated by injection of 20 mM NaOH, 75 mM NaCl solution.

[3] = molecular target: T3, Recombinant human FcγRI [CD64], Gln16-Pro288 with C-terminal 6-His tag (human, UniProt P12314 16-288); assay: SPR (Biacore X), Mab amine-coupled on CM4 chip, h-FcγRI as analyte, Langmuïr model
T3 construct: range 16-288; Soluble form bought from R&D Systems; also called h-FcγRI

[4] = molecular target: T4, Recombinant mouse FcγRI [CD64], Gln25-Pro297 with C-terminal 6-His tag (mouse, UniProt P26151 25-297); assay: SPR (Biacore X), steady-state analysis, response at end of association versus m-FcγRI concentration
T4 construct: range 25-297; Soluble form bought from R&D Systems; also called m-FcγRI
T4 sequence: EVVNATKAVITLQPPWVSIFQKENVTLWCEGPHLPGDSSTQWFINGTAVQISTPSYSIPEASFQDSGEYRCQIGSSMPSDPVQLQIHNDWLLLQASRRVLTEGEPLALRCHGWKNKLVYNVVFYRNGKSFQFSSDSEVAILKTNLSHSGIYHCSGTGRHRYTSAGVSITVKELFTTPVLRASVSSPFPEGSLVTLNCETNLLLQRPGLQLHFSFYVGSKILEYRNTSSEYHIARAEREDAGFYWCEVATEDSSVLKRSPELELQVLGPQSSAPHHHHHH

[5] = molecular target: T1, Recombinant human FcγRIIIA variant V …; assay: SPR (Biacore X), Mab on CM4 chip, h-FcγRIIIA as analyte, heterogeneous ligand model, major component
[6] = molecular target: T1, Recombinant human FcγRIIIA variant V …; assay: SPR (Biacore X), steady-state analysis, response at end of association versus h-FcγRIIIA concentration
[7] = molecular target: T4, Recombinant mouse FcγRI [CD64], …; assay: SPR (Biacore X): m-FcγRI injected over hz515H7VH1D76NVL2 Mab immobilized on a CM4 sensorchip; heterogeneous ligand model, minor component (18%)
Description: as §1, with “1964” for “2017”, “hz515H7VH1D76NVL2” for “c515H7”
as §2
(§3) After each injection of the analyte, the sensorchip was regenerated by injection of either 20 mM NaOH solution after h-FcγRI and m-FcγRIII or 10 mM NaOH after h-FcγRIIIA and m-FcγRI.

[8] = molecular target: T3, Recombinant human FcγRI [CD64], …; assay: SPR (Biacore X): h-FcγRI injected over hz515H7VH1D76NVL2 Mab immobilized on a CM4 sensorchip; heterogeneous ligand model, minor component (1%)
Description: The experiments were carried out using a Biacore X device. The soluble forms of the four Fc […]gamma receptors used in this study were purchased from R&D Systems: […]

[9] = molecular target: T4, Recombinant mouse FcγRI [CD64], …; assay: SPR (Biacore X), Mab on CM4 chip, m-FcγRI as analyte, heterogeneous ligand model, minor component
Description: as §1, with “1964” for “2017”, “hz515H7VH1D76NVL2” for “c515H7”
as §2, §3

[10] = molecular target: T1, Recombinant human FcγRIIIA variant V …; assay: SPR (Biacore X): h-FcγRIIIA injected over hz515H7VH1D76NVL2 Mab immobilized on a CM4 sensorchip; heterogeneous ligand model, minor component (21%)
Description: as §1, with “1964” for “2017”, “hz515H7VH1D76NVL2” for “c515H7”
as §2
Sensorgrams obtained with h-FcγRIIIA [FIG. 16] were clearly not fitted by the Langmuïr model (Chi2/Rmax>20%). […] According to this model, the hz515H7VH1D76NVL2 Mab Fc domain may be regarded as a mixture of two components. […] According to the literature, the heterogeneity observed with h-FcγRIIIA was probably linked to the glycosylation heterogeneity on the Mab Fc domain.

T3 sequence (P12314 other isoform, or with tags, fused parts or gaps limits assumed): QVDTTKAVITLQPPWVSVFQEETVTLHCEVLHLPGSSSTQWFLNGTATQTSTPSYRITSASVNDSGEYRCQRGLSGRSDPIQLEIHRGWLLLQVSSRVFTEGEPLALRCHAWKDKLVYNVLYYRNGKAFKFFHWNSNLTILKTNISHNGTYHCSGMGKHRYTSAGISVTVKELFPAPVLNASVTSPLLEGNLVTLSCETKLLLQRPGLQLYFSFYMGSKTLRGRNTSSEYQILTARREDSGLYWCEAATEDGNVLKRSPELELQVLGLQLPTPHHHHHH
T1 sequence (P08637 other isoform, or with tags, fused parts or gaps mutant limits assumed, form in doubt): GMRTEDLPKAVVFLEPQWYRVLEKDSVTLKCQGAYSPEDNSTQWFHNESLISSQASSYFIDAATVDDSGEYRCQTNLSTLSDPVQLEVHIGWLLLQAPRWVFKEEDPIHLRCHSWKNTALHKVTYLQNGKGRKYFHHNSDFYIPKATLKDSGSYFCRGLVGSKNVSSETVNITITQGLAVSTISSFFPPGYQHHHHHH

Kd [1]: 32 to 37 nM | Kd [2]: 20.9 nM | koff [2]: 0.00442 s⁻¹ | kon [2]: 211000 M⁻¹ s⁻¹ | Kd [3]: 1.2 nM | Kd [4]: 107 nM | Kd [5]: 380 to 450 nM | Kd [6]: 160 nM
B1: chimeric antibody c515H7 (antibody, human IgG1, kappa)
heavy: not shown
light: DIVMSQSPSSLAVSAGEKVTMSCKSSQSLFNSRTRKNYLAWYQQKPGQSPKLLIYWASARDSGVPARFTGSGSETYFTLTISRVQAEDLAVYYCMQSFNLRTFGGGTKLEIKRTVAAPSVFIFPPSDEQLKSGTASVVCLLNNFYPREAKVQWKVDNALQSGNSQESVTEQDSKDSTYSLSSTLTLSKADYEKHKVYACEVTHQGLSSPVTKSFNRGEC
notes: Human IgG1/kappa constant domains; also called c515H7 Mab; chimeric 515H7

Kd [1]: 27 to 32 nM | Kd [7]: 90.9 nM | koff [7]: 0.022 s⁻¹ | kon [7]: 242000 M⁻¹ s⁻¹ | Kd [8]: 0.28 nM | koff [8]: 2e-05 s⁻¹ | kon [8]: 72000 M⁻¹ s⁻¹ | Kd [9]: ~90 nM | Kd [3]: 0.9 nM | Kd [4]: 95 nM | Kd [5]: 300 to 350 nM | Kd [6]: 176 nM | Kd [10]: 29.3 nM | koff [10]: 0.0155 s⁻¹ | kon [10]: 529000 M⁻¹ s⁻¹
B2: humanized antibody Hz515H7 VH1 D76N VL2 (antibody, human IgG1, kappa)
heavy: not shown
light: B1 light with S5T, A15L, K18R, V19A, G105Q, L109V
notes: IgG1/kappa; also called hz515H7VL2; hz515H7-1
